Data: paper PMC7935953, “Insights on autophagosome–lysosome tethering from structural and biochemical characterization of human autophagy factor EPG5” (Communications Biology, 2021)

Key:
Assay in all cases: pull-down; GST pull-down: purified GST-LC3A/B/C or GST-GABARAP/L1/L2 bait (200–240 µg) on glutathione resin, purified His-FLAG-hEPG5 or mutant (25–30 µg) as prey; 50 mM Tris pH 8.0, 150 mM NaCl, 5% glycerol, 0.01% Tween20, 0.5 mM DTT, 4 °C; anti-FLAG fluorescence western blot
[1] = biological target: GST-GABARAPL1 (human) (UniProt Q9H0R8)
Sequence of GST-GABARAPL1 (human) (Q9H0R8 whole entry): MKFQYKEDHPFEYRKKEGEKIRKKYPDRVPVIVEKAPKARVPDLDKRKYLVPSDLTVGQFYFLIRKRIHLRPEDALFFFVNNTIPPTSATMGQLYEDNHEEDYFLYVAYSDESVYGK

[2] = biological target: GST-GABARAPL2 (human) (UniProt P60520)
Sequence of GST-GABARAPL2 (human) (P60520 whole entry): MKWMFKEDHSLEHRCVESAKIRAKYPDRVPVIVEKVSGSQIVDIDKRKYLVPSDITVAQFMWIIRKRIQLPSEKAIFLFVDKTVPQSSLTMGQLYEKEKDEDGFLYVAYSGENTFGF

[3] = biological target: GST-GABARAP (human) (UniProt O95166)
Sequence of GST-GABARAP (human) (O95166 whole entry): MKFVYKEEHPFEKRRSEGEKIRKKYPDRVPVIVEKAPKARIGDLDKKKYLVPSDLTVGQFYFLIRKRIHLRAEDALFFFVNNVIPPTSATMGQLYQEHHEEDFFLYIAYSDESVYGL

fold more hEPG5 precipitated than by the LC3 subfamily [1]: 2.5 times | fold more hEPG5 precipitated than by the LC3 subfamily [2]: 2.5 times | fold more hEPG5 precipitated than by the LC3 subfamily [3]: 2.5 times
Substance: His-FLAG-hEPG5 (human EPG5, full length, wild type), Q9HCE0 1-2579
